From patent US5534260A, “Percutaneous drug delivery system” (priority 1994, dated 1996)
Entries after “also recorded” stand apart in the source; their conditions may differ.

Key:
[1] = Fourier Transform Infrared spectroscopy of stratum corneum; parameters: species or system mouse; conditions: for Absorbance in protein areas, peak position: Table I; for FTIR peak, Amide III / FTIR peak, Shoulder Beta sheet / FTIR peak, Alpha helix peak: Table IV; for FTIR peak, Amide III: untreated 1244; for FTIR peak, Shoulder Beta sheet: untreated 1267; for FTIR peak, Alpha helix peak: untreated 1295; for Symmetric CH peak position / Asymmetric CH peak position: Table V; for Symmetric CH peak position: normal SC 2848.3; for Asymmetric CH peak position: normal SC 2916.5; for Length of 70% line, symmetric line / Length of 70% line, asymmetric line: Table VI; for Length of 70% line, symmetric line: normal SC 8.6; for Length of 70% line, asymmetric line: normal SC 17.5
Experimental: A. Comparisons of normal stratum corneum (from mouse skin) to stratum corneum treated with a 0.09% concentration of papain for 24 hours was performed using Fourier Transform Infrared spectroscopy (FTIR). […] It is postulated that a shift from a random form of protein to the more organized beta sheet structure occurs. The alpha-helix structures of skin protein could be fractionated, uncoiled, or both.
A comparison of symmetric and asymmetric CH stretch bands was then made. These two bands represent lipid structure and would show any changes in the stratum corneum lipids caused by the papain.
B. Azone™ was tested as a permeation enhancer with and without the presence of papain.

[2] = Skin damage / irritation by papain pretreatment; conditions: in words
[3] = Effect of non-enzyme components in admixture with papain on penetration of 14C-TEAB (Example IV)
[4] = Enhancement of acetylcholine chloride penetration through hairless mouse skin at pH 7.4 (Example III); type: in vitro ADME
Experimental: A percutaneous permeation enhancer having the following formula was prepared: […]
The effect of the percutaneous enhancer, as prepared in Example II above, was measured on the penetration of the quaternary compound acetylcholine chloride through hairless mouse skin at pH 7.4. […] The data below indicates a potentiating or synergistic effect in combining the agents for use as an enhancer.
Enhancement effect of 0.0465 mg/ml Sigma papain alone and in
combination with 2% Azone™ and 15% propylene glycol on the
penetration of acetylcholine chloride through hairless mouse

[5] = 14C-TEAB through pretreated skin (n = 1 for components alone, n = 2 combinations, n = 3 papain 0.0465 mg/ml 24 hours)
[6] = acetylcholine chloride, pH 7.4, pretreated skin

B1: papain: proteolytic enzyme; preferred enzyme, readily available from Sigma Chemical Company (protein, UniProt P00784 134-345, looked up)
Papain: IPEYVDWRQKGAVTPVKNQGSCGSCWAFSAVVTIEGIIKIRTGNLNEYSEQELLDCDRRSYGCNGGYPWSALQLVAQYGIHYRNTYPYEGVQRYCRSREKGPYAAKTDGVRQVQPYNEGALLYSIANQPVSVVLEAAGKDFQLYRGGIFVGPCGNKVDHAVAAVGYGPNYILIKNSWGTGWGENGYIRIKRGTGNSYGVCGLYTSSFYPVKN
[1]; 24 hours
  recovery after removal of papain: partial recovery
[1]; 48 hours
  recovery after removal of papain: nearly complete recovery
[1]; untreated SC 1244
  Absorbance in protein areas, peak position: 1236.6 cm⁻¹
[1]; untreated SC 1267
  Absorbance in protein areas, peak position: 1263.7 cm⁻¹
[1]; untreated SC 1295
  Absorbance in protein areas, peak position: 1288.4 cm⁻¹
[1]; untreated SC 1400.5
  Absorbance in protein areas, peak position: 1403.8 cm⁻¹
[1]; untreated SC 1456
  Absorbance in protein areas, peak position: 1464.7 cm⁻¹
[1]; Table II, untreated 2848.3
  Absorbance in lipid areas, symmetric CH peak position: 2850 cm⁻¹
[1]; Table II, untreated 2916.5
  Absorbance in lipid areas, asymmetric CH peak position: 2920 cm⁻¹
[1]; Table III, untreated 8.6
  Length of the 70% line, symmetric CH: 9.1 cm⁻¹
[1]; Table III, untreated 17.5
  Length of the 70% line, asymmetric CH: 17.5 cm⁻¹
[1]; 24 hr recovery after papain
  FTIR peak, Amide III: 1242.4 cm⁻¹
  FTIR peak, Shoulder Beta sheet: 1271.8 cm⁻¹
  FTIR peak, Alpha helix peak: 1301.7 cm⁻¹
[1]; 48 hr recovery after papain
  FTIR peak, Amide III: 1243.2 cm⁻¹
  FTIR peak, Shoulder Beta sheet: 1268.4 cm⁻¹
  FTIR peak, Alpha helix peak: 1296.5 cm⁻¹
[1]; papain treated
  FTIR peak, Amide III: 1236 cm⁻¹
  FTIR peak, Shoulder Beta sheet: 1262 cm⁻¹
  FTIR peak, Alpha helix peak: 1288 cm⁻¹
[1]; 48 hr recovery SC
  Symmetric CH peak position: 2849.3 cm⁻¹
  Asymmetric CH peak position: 2916.5 cm⁻¹
  Length of 70% line, symmetric line: 10.5 cm⁻¹
  Length of 70% line, asymmetric line: 19.3 cm⁻¹
[1]; papain treated SC
  Symmetric CH peak position: 2848.5 cm⁻¹
  Asymmetric CH peak position: 2916.3 cm⁻¹
  Length of 70% line, symmetric line: 9.1 cm⁻¹
  Length of 70% line, asymmetric line: 17.5 cm⁻¹
[1]; in words
  change in lipid structure / CH stretch bands of stratum corneum: no change in lipid structure
  change in protein FTIR areas of stratum corneum: significant changes occurring in the amide III, beta sheet, and alpha-helix formations of the stratum corneum cells
[2]
  skin damage / irritation: increased damage to the skin and can cause bleeding; also recorded: damage the skin, possibly leading to bleeding
[3]; [5]
  J (flux): (1.33 ± 0.48) × 10^-4 mg cm^-2 s^-1
  P (permeability): (1.63 ± 0.59) × 10^-7 cm s^-1
[3]; 14C-TEAB, n = 1 components alone, n = 2 combinations, n = 3 papain
  E (enhancement effect): 32.93
[4]; acetylcholine chloride, pH 7.4
  E (enhancement effect): 88.4
[4]; [6]
  J (flux): 5.67 × 10^-4 mg/cm^2 /sec
  P (permeability): 2.83e-06 cm/s
[4]; pH 7.4, pretreatment
  increase in penetration of acetylcholine chloride: eighty-eight
pH 7.4
  drug penetration: greater drug penetration
Skin pretreated with papain
  increase in absorption of TEAB: 3,346%
